Laboratory results from paper doi:10.1101/2025.10.25.684504.
Values belong to the substance of their own block, whether it stands above or below them.

Key:
Assay in all cases: cryo-EM structure
[1] = target: ApCsm6 H369A (Actinomyces procaprae)
[2] = target: Actinomyces procaprae Csm6 (ApCsm6), wild type (Actinomyces procaprae)
[3] = target: ApCsm6 R723A (Actinomyces procaprae)

- stoichiometry N [1]: 4
Substance: ApCsm6 H369A (enzyme)

- stoichiometry N [2]: 4
Substance: Actinomyces procaprae Csm6 (ApCsm6), wild type (enzyme)

- stoichiometry N [3]: 4
Substance: ApCsm6 R723A (enzyme)
